The source of these data is article PMC2330087, “Mechanistic Insights into a Novel Exporter-Importer System of Mycobacterium tuberculosis Unravel Its Role in Trafficking of Iron” (PLoS ONE, 2008).

In data set [1] the target is IrtB-Rv2895c two-component system (rIrtB in LP-49 liposomes with rRv2895c) (Mycobacterium tuberculosis, UniProt P9WL31+P9WQJ7).
Data set [2] deals with the molecule itself. The data set is described as follows: SEC + other: circular dichroism. For orientation: CD spectra are sensitive to the conformation of chiral molecules.

IrtB-Rv2895c two-component system (rIrtB in LP-49 liposomes with rRv2895c), sequence (P9WL31 whole entry, one chain of several): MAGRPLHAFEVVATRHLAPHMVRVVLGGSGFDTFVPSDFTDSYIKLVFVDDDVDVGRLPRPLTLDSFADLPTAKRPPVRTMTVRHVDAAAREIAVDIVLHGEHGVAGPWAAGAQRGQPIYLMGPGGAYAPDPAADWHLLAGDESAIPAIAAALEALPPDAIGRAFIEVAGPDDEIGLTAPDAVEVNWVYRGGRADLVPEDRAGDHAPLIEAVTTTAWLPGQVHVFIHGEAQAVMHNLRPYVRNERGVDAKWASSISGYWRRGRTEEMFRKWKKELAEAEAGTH

For the molecule `Nc1ncnc2c1ncn2[C@@H]1O[C@H](COP(=O)(O)OP(=O)(O)OP(=O)(O)O)[C@@H](O)[C@H]1O` [ATP], the “inorganic phosphate release in proteoliposomes” value in data set [1] is given as “The increase in ATPase activity of (a) LP-49 liposomes after incubation with Fe-cMyco bound rRv2895c”.

B1: rIrtB (recombinant purified IrtB, Rv1349) (natural protein)
chain: MIRTWIALVPNDHRARLIGFALLAFCSVVARAVGTVLLVPLMAALFGEAPQRAWLWLGWLSAATVAGWVLDAVTARIGIELGFAVLNHTQHDVADRLPVVRLDWFTAENTATARQAIAATGPELVGLVVNLVTPLTSAILLPAVIALALLPISWQLGVAALAGVPLLLGALWASAAFARRADTAADKANTALTERIIEFARTQQALRAARRVEPARSLVGNALASQHTATMRLLGMQIPGQLLFSIASQLALIVLAGTTAALTITGTLTVPEAIALIVVMVRYLEPFTAVSELAPALESTRATLGRIGSVLTAPVMVAGSGTWRDGAVVPRIEFDDVAFGYDGGSGPVLDGVSFCLQPGTTTAIVGPSGCGKSTILALIAGLHQPTRGRVLIDGTDVATLDARAQQAVCSVVFQHPYLFHGTIRDNVFAADPGASDDQFAQAVRLARVDELIARLPDGANTIVGEAGSALSGGERQRVSIARALLKAAPVLLVDEATSALDAENEAAVVDALAADPRSRTRVIVAHRLASIRHADRVLFVDDGRVVEDGSISELLTAGGRFSQFWRQQHEAAEWQILAE
notes: also called p28-IrtB
For the molecule B1, in data set [2], the binding result is “binds”.

B2: rIrtA (recombinant purified IrtA, Rv1348) (natural protein)
chain: MARGLQGVMLRSFGARDHTATVIETISIAPHFVRVRMVSPTLFQDAEAEPAAWLRFWFPDPNGSNTEFQRAYTISEADPAAGRFAVDVVLHDPAGPASSWARTVKPGATIAVMSLMGSSRFDVPEEQPAGYLLIGDSASIPGMNGIIETVPNDVPIEMYLEQHDDNDTLIPLAKHPRLRVRWVMRRDEKSLAEAIENRDWSDWYAWATPEAAALKCVRVRLRDEFGFPKSEIHAQAYWNAGRAMGTHRATEPAATEPEVGAAPQPESAVPAPARGSWRAQAASRLLAPLKLPLVLSGVLAALVTLAQLAPFVLLVELSRLLVSGAGAHRLFTVGFAAVGLLGTGALLAAALTLWLHVIDARFARALRLRLLSKLSRLPLGWFTSRGSGSIKKLVTDDTLALHYLVTHAVPDAVAAVVAPVGVLVYLFVVDWRVALVLFGPVLVYLTITSSLTIQSGPRIVQAQRWAEKMNGEAGSYLEGQPVIRVFGAASSSFRRRLDEYIGFLVAWQRPLAGKKTLMDLATRPATFLWLIAATGTLLVATHRMDPVNLLPFMFLGTTFGARLLGIAYGLGGLRTGLLAARHLQVTLDETELAVREHPREPLDGEAPATVVFDHVTFGYRPGVPVIQDVSLTLRPGTVTALVGPSGSGKSTLATLLARFHDVERGAIRVGGQDIRSLAADELYTRVGFVLQEAQLVHGTAAENIALAVPDAPAEQVQVAAREAQIHDRVLRLPDGYDTVLGANSGLSGGERQRLTIARAILGDTPVLILDEATAFADPESEYLVQQALNRLTRDRTVLVIAHRLHTITRADQIVVLDHGRIVERGTHEELLAAGGRYCRLWDTGQGSRVAVAAAQDGTR
notes: also called p23-IrtA
On to B2, for which the binding result in data set [2] is “binds”.
